Measured values reported in paper PMC3742808 (Nature structural & molecular biology, 2013).

Tests used:
[1] = biological target: recombinant human APC/C (without CDH1) (human, UniProt Q9H1A4;Q9UJX6;P30260;Q9UJX5;Q9UJX4;Q13042;Q9UJX3;Q9UJX2;Q9UM13;Q9NYG5;Q9BS18;P60 …); test: enzyme inhibition
[2] = biological target: recombinant human APC/C^CDH1 (Anaphase Promoting Complex/Cyclosome with CDH1) (human, UniProt Q9H1A4;Q9UJX6;P30260;Q9UJX5;Q9UJX4;Q13042;Q9UJX3;Q9UJX2;Q9UM13;Q9NYG5;Q9BS18;P60 …); test: enzyme inhibition

Row | Binder | Ki [1] [nM] | Ki [2] [nM]
1 | EMI1^ZT (ZBR and Tail; residues 363-447) (domain or fragment) SEVAKTLKKNESLKACIRCNSPAKYDCYLQRATCKREGCGFDYCTKCLCNYHTTKDCSDGKLLKASCKIGPLPGTKKSKKNLRRL | 2000 ± 400 | –
2 | EMI1^DLZT (D-box, Linker, ZBR, Tail; C-terminal APC/C inhibitory domain, residues 305-447) (domain or fragment) NNNKFSPHASTREYVMFRTPLASVQKSAAQTSLKKDAQTKLSNQGDQKGSTYSRHNEFSEVAKTLKKNESLKACIRCNSPAKYDCYLQRATCKREGCGFDYCTKCLCNYHTTKDCSDGKLLKASCKIGPLPGTKKSKKNLRRL | – | ≤ 2.5
3 | EMI1^D(Mut)LZT (EMI1^DLZT with alanines in place of Arg322 and Leu325 of the D-box RxxL motif) (domain or fragment) NNNKFSPHASTREYVMFATPAASVQKSAAQTSLKKDAQTKLSNQGDQKGSTYSRHNEFSEVAKTLKKNESLKACIRCNSPAKYDCYLQRATCKREGCGFDYCTKCLCNYHTTKDCSDGKLLKASCKIGPLPGTKKSKKNLRRL | 220 ± 37 | –
